B1: POU domain, class 3, transcription factor 2, residues 356 to 411; numbered along this chain, P20265 (parent)
chain: KKRTSIEVSVKGALESHFLKCPKPSAQEITSLADSLQLEKEVVRVWFCNRRQKEKR
B2: Cytoplasmic polyadenylation element-binding protein 2, residues 513 to 575; numbered along this chain, Q7Z5Q1 (parent)
chain: KRVEVKPYVLDDQMCDECQGARCGGKFAPFFCANVTCLQYYCEFCWANIHSRAGREFHKPLVK

Variants of: B1
Assay: abundance fitness (aPCA) (normalised: wild type 0, dead -1); higher = more abundant; growth selection in yeast, the domain comes from the species named
Conditions: Homo sapiens

Abundance fitness: each site, then its substitutions
K1: A -0.237 | D 0.082 | G -0.214

Variants of: B2
Assay: as above
Conditions: Homo sapiens

Abundance fitness of substitutions, site by site:
I49: E -0.461 | K -0.127 | R -0.006 | G -0.284 | V -0.01 | L -0.033 | P -0.43 | T -0.139 | A 0.017 | W -0.268 | S -0.015 | Y 0.026 | Q -0.132 | N -0.221 | M -0.184 | F -0.044 | D -0.186 | C -0.443
F44: D -0.109 | T 0.003 | S -0.012 | Q 0.124 | N -0.056 | V 0.044 | L 0.007 | M -0.145 | G 0.015 | C 0.053 | P 0.082 | R -0.038 | Y 0.059 | E 0.033 | W -0.067 | K -0.046 | A 0.05
H58: M -0.653 | K -0.384 | V -0.704 | P -0.51 | S -0.523 | L -0.707 | C -0.227 | Q -0.663 | A -0.743 | D -0.704 | T -0.611 | I -0.679 | F -0.934 | Y -0.822 | E -0.442 | R -0.763 | W -1.01
V62: I -0.103 | A -0.193 | D -0.164 | R 0.105 | M 0.081 | S -0.081
C45: P -0.932 | L -1.14 | K -1.11 | W -1.04 | T -1.01 | M -1.24 | F -1.2 | R -1.05 | Q -0.994 | I -1.1 | S -1.1 | A -0.77 | E -1.16 | Y -0.917 | V -1.32 | H -0.733
N48: K 0.164 | Y -0.112 | I -0.02 | F -0.071 | V -0.003 | D 0.007 | S 0.032 | E 0.104 | Q -0.028 | C -0.033 | R 0.029 | P -0.141 | H 0.049 | T 0.024 | A -0.001 | M 0.068 | L 0.014 | G 0.074
K63: H -0.014 | Y -0.408 | G 0.1 | V -0.112 | R -0.105 | T -0.079 | W -0.415 | Q -0.044 | P 0.367 | E 0.014 | M -0.111 | N -0.091 | S -0.034 | D -0.641 | A 0.125
A53: W -0.287 | R 0.055 | N 0.152 | F -0.045 | Y -0.098 | Q 0.106 | P 0.157 | L -0.092 | C -0.091 | K 0.142 | T 0.082 | E 0.082 | H 0.053 | D 0.02 | V -0.006 | S 0.053 | M -0.045 | I -0.079
K59: Q -0.076 | G -0.255 | E 0.168 | A -0.118 | W -0.46 | F -0.541 | Y -0.351 | N -0.248 | R 0.024 | V -0.2 | L -0.219 | D -0.132 | I -0.3 | H -0.226 | T -0.041 | C -0.199 | P -0.247 | S 0.021
F57: P -0.029 | S 0.129 | M 0.144 | E 0.117 | R 0.097 | T 0.121 | I -0.109 | H 0.027 | G 0.166 | C 0.098 | Y -0.032 | N 0.134 | L 0.091 | A 0.125 | V 0.065 | W 0.026 | D 0.054
A47: R -0.041 | P -0.175 | W -0.133 | N 0.127 | E -0.001 | L -0.18 | F -0.235 | K 0.091 | M 0.019 | I -0.073 | Y -0.114 | C -0.318 | D 0.102 | H -0.17 | V -0.192 | Q -0.01
L61: F -0.11 | S 0.12 | C 0.091 | W -0.137 | T 0.076 | E 0.146 | R -0.014 | G 0.076 | D 0.04 | A 0.092 | H -0.048 | I 0.071 | M 0.012 | Q 0.116 | V 0.091 | Y -0.197 | K 0.065 | N 0.033
E43: T -0.149 | Y -0.146 | K -0.161 | I -0.539 | M -0.309 | S 0.018 | H -0.079 | Q -0.11 | L -0.395 | V -0.235 | R -0.107 | W -0.136 | N -0.05
W46: R -0.571 | E -0.658 | G -0.567 | H -0.328 | I -0.444 | L -0.335 | T -0.558 | Q -0.624 | Y -0.154 | A -0.503 | P -0.624 | M -0.336 | D -0.684 | C -0.401 | V -0.573 | K -0.829 | F 0.027 | N -0.33
H50: K -0.673 | G -0.637 | W -0.784 | S -0.723 | R -0.775 | F -0.904 | P -0.81 | A -0.674 | E -0.546 | Y -0.806 | N -0.827 | I -0.992 | T -0.742 | M -0.875 | L -0.965 | Q -0.727
S51: W -0.267 | L -0.021 | M 0.029 | A 0.045 | N 0.091 | G 0.051 | Q 0.102 | P -0.118 | R 0.116 | V -0.025 | D 0.174 | F -0.239 | H -0.054 | T 0.006 | K 0.106
P60: C -0.154 | T -0.558 | R -0.052 | G -0.341 | E -0.412 | N -0.057 | H -0.226 | L -0.517 | Q 0.051 | W -0.817 | F -0.937 | A -0.051 | V -0.331 | M -0.157
E56: K 0.035 | A -0.357 | D -0.035 | R -0.01 | L -0.253 | S -0.128 | M -0.154 | Y -0.271 | H -0.158 | F -0.235 | W -0.573 | N -0.111 | P -0.31 | V -0.373 | C -0.195 | Q -0.214
R55: E -0.142 | Q -0.058 | P -0.463 | M 0.031 | V -0.1 | A -0.03 | C -0.194 | F 0.035 | Y 0.211 | N -0.019 | H -0.131 | S -0.041 | I 0.104 | T -0.165 | G -0.176 | L 0.04 | D -0.08
R52: M 0.064 | L -0.017 | S 0.085 | V 0.102 | Q 0.119 | Y -0.088 | A 0 | D 0.156 | I 0.029 | C -0.077 | E 0.079 | K 0.118 | W -0.225 | G 0.02 | F -0.071 | N 0.004
G54: P -0.004 | M -0.299 | I -0.176 | N 0.108 | W -0.259 | E -0.065 | S -0.009 | K -0.195 | L -0.146 | T -0.112 | V -0.32 | H -0.123
